Results taken from patent publication US20250320288A1, “METHOD OF TREATING VITILIGO WITH INTERFERON-GAMMA ANTIBODY” (Elixiron Immunotherapeutics (Hong Kong), priority 2022, published 2025).
“Also recorded” adds a separate entry of the source.

B1: CXCL11: IFN-γ downstream cytokine added to melanocytes (protein, UniProt O14625 22-94, looked up)
C-X-C motif chemokine 11: FPMFKRGRCLCIGPGVKAVKVADIEKASIMYPSNNCDKIEVIITLKENKGQRCLNPKSKQARLIIKKVERKNF
B2: CXCL9: IFN-γ downstream cytokine added to melanocytes (protein, UniProt Q07325 23-125, looked up)
C-X-C motif chemokine 9: TPVVRKGRCSCISTNQGTIHLQSLKDLKQFAPSPSCEKIEIIATLKNGVQTCLNPDSADVKELIKKWEKQVSQKKKQKNGKKHQKKKVLKVRKSQRSRQKKTT
B3: IFN-γ: recombinant human interferon gamma, cytokine added to melanocytes (protein, UniProt P01579 24-161, looked up)
Interferon gamma: QDPYVKEAENLKKYFNAGHSDVADNGTLFLGILKNWKEESDRKIMQSQIVSFYFKLFKNFKDDQSIQKSVETIKEDMNVKFFNSNKKKRDDFEKLTNYSVTDLNVQRKAIHELIQVMAELSPAAKTGKRKRSQMLFRG

How the values were obtained:
[1] = system: primary melanocytes; experiment: Melanocyte cell viability after IFN-γ, chemokines, cell death inhibitors or 2A6Q, Day 2 and Day 7; format: cell-based, human; conditions: day 7 of treatment
Description: To determine cell viability of melanocyte after treatment with IFN-γ, CXCL9, CXCL10, CXCL11, at Day 2, and Day 7, the cells were collected and seeded into 96-well plates. After adhesion, cells were treated with IFN-γ (0, 10, 100 ng/ml) with different compounds: 2A6Q, CXCL9, CXCL10, CXCL11, ROS scavenger (NAC), necroptosis inhibitor (NEC-1), pyroptosis inhibitor (VX-765), apoptosis inhibitor (QVD-OPH), Ferroptosis inhibitor (Liproxstaitin-1, Ferrostatin-1, DFO). Cell viability was measured using a CellTiter-Glo luminescent cell viability assay kit (Promega) according to the manufacturer's protocol. The […] of the final reaction product was measured using a luminometer (SpectraMax® iD3 Multi-Mode Microplate Reader (Molecular Devices). After calculation, the viability of control cells was 100%, and all others were normalized to control and shown as relative cell viability (%). Treatment dosage N-acetylcysteine (NAC; 0.05 mM, 1 mM), Necrostatin-1 (NEC-1; 20 μM, 2 μM), Belnacasan (VX-765; 50 μg/mL, 5 μg/mL), Quinoline-Val Asp-Difluorophenoxymethylketone (QVD-OPH; 10 μM, 2 μM), Liproxstaitin-1 (10 μM, 5 μM, 1 μM, 0.05 μM), Ferrostatin-1 (5 μM, 1 μM), Deferoxamine (DFO; 10 μM, […], 1 μM, 0.05 μM), 2A6Q (10 μg/mL), CXCL9 (10 ng/mL, 10 pg/mL), CXCL10 (10 ng/ml, 10 pg/mL), CXCL11(10 ng/mL, 10 pg/mL).

[2] = system: melanocytes; experiment: Melanocyte apoptosis, Annexin V / 7AAD flow cytometry; format: cell-based, human; conditions: IFN-γ 10 or 100 ng/ml, 48 hrs
Description: Materials and methods: Melanocyte cell apoptosis was detected with Annexin V (BD, 550474) and 7AAD (1 mg/mL, Sigma A9400-1 MG). The cells were detached and resuspended with […] binding buffer (BD, 556454) containing Annexin V and 7AAD for 15 min at room temperature in the dark. Before analysis, cells were added to a […] binding buffer and immediately analyzed a on a flow cytometer (Verse BD).

[3] = system: human primary melanocytes (HEMn-DP); experiment: IFN-γ inhibition of melanocyte melanogenesis (melanin content, absorbance 470 nm); format: cell-based
Description: Materials and methods: To examine the dose-dependency of IFN-γ inhibition of HEMn-DP cell melanogenesis, HEMn-DP cells were seeded into a 24-well plate at a concentration of 200,000 cells/well in 1 mL assay medium (M254 supplemented with 1× HMGS, 10 ng/mL PMA plus Penicillin-Streptomycin) with serial dilutions of IFN-γ, followed by incubation at 37° C. for 7 days. The cell assay medium was replaced by fresh medium with serially titrated concentrations of IFN-γ on day 3 and day 5. On day 7, cells were first washed with PBS twice, lysed in 250 μL of 1N NaOH/10% DMSO solution, then incubated at 80° C. for 1 hr. After lysis, each lysate was transfer to 96 well plate, and absorbance of melanin was then measured at […]. The relative melanin quantity was normalized with cell viability of each sample which was measured by CellTiter-Glo kit, and data were analyzed using nonlinear regression curve fit using GraphPad Prism7. To determine the potency of EI-001, HEMn-DP cells were seeded as previously described, and IFN-γ pre-incubated with indicated amounts of EI-001 for 25 min in 1 mL of assay medium. After incubation, the mixture was added to each well (final IFN-γ concentration is 20 ng/ml). Melanin content of melanocytes was determined as previously described.

[4] = system: primary melanocytes; experiment: Cell morphology assay in melanocytes; format: cell-based, human
[5] = system: melanocytes; experiment: Intracellular ROS in melanocytes (CM-H2DCFDA); format: cell-based, human; conditions: 10 and 100 ng/mL IFN-γ, day 7
Description: Materials and methods: For intracellular ROS measurement, melanocytes were washed with PBS and incubated with 20 μM CM-H2DCFDA (Invitrogen) for 30 min at 37° C. in the dark. The cells were resuspended with PBS and examined with flow cytometry at an excitation wavelength of 488 nm and an emission wavelength of 530 nm; the data were analyzed with FlowJo.

[6] = system: MITF; experiment: Melanin regulators in melanocytes (RNA sequencing, MITF immunoblot); format: cell-based, human
Text: (§1) Total RNA was extracted from melanocytes with an RNA purification kit (Zymo Research, r2050). After RNA samples were extracted from primary melanocytes and melanocytes cell line (Gibco), the samples were sent to Biotools Co., Ltd Taiwan for RNA sequence. The RNA quality was examined by Agilent Technologies 2100 Bio-analyzer with an RNA integrity value greater than 8. After rRNA depletion (Epicenter), RNA fragmentation, and library preparation (Illumina), the constructed libraries were then performed 150 bp paired-end sequencing by an Illumina NovaSeq6000 sequencer. The results from each sample were aligned to the GRCh38 genome by the HISAT2 software and analyzed by Biotools Co., Ltd Taiwan.
(§2) Cells were washed in PBS and lysed in RIPA lysis buffer with proteases inhibitor and Phenylmethanesulfonyl fluoride (PMSF; Sigma-Aldrich, P7626). The total cell lysates were sonicated and centrifuged at 4° C., 13000 rpm for 30 min. Protein concentration was quantified using the Bradford assay. The total cell lysates were separated by SDS-PAGE and transferred to a PVDF membrane. The membrane was blocked with 5% BSA or 5% milk in TBST for 1 hour at room temperature and incubated with primary antibodies overnight at 4° C. and HRP-conjugated secondary antibodies for hour at room temperature. The protein was visualized by Thermo ibright1500. Primary antibodies were follows: anti-human SLC7A11 (CST, 12691), anti-human SLC3A2 (CST, 13180), anti-IRF1 (CST, 8478), anti-MITF (CST, 12590), and anti-GAPDH (Abcam, ab8245).

[7] = system: SLC7A11; experiment: Ferroptosis regulators in melanocytes (RNA sequencing, SLC7A11 immunoblot); format: cell-based, human
Text: as §1, §2

[8] = system: human primary melanocytes (HEMn-DP); experiment: IFN-γ inhibition of human primary melanocyte cell viability (CellTiter-Glo); format: cell-based; conditions: 72 hrs at 37° C.
Description: Materials and methods: To examine the dose-dependency of IFN-γ inhibition of human primary melanocytes (HEMn-DP) cell viability, HEMn-DP cells were seeded into a 96-well plate at a concentration of 10,000 cells/well in 100 μL assay medium (M254 supplemented with 1× HMGS, 10 ng/mL PMA plus Penicillin-Streptomycin) at 37° C. for 5 hours. After seeding, 100 μL of IFN-γ serial dilutions were added, followed by incubation at 37° C. for 72 hrs. Then, cell proliferation was measured using CellTiter-Glo kit (Promega) according to the manufacturer's instructions. Luminescence was measured with an iD3 multimode reader (Molecular Devices), and data analyzed using nonlinear regression curve fit using GraphPad Prism7.

[9] = system: melanocytes; experiment: Lipid peroxidation in melanocytes (BODIPY 581/591 C11); format: cell-based, human; conditions: dose-dependent, Day 6
Description: For lipid peroxidation examination, melanocyte cells were seeded in a 6-well plate and treated with IFN-γ the next day. Melanocytes were washed with PBS and incubated with Hanks balanced salt solution (HBSS, Gibco) containing 5 μM BODIPY 581/591 C11 (Invitrogen, D3861) and incubated for 15 minutes at 37° C. in a tissue culture incubator. The cells were resuspended with fresh HBSS and examined with flow cytometry; the data were analyzed with FlowJo.

Row | Molecule | effect on cell viability of melanocytes (individual cytokine) [1] | early phase apoptosis in melanocytes (Annexin V) [2] | IC50 of IFN-γ causing 50% inhibition of melanocyte melanogenesis ([3]; human primary melanocytes, 7 days, melanin content) | melanin content of melanocytes under IFN-γ ([3]; spectrophotometer) | lowest concentration at which the morphology effect is present ([4]; dose-dependent effect) | morphology change in melanocyte (loss of dendrite, ballooning of cytoplasm) ([4]; primary melanocytes, 7 days of treatment) | intracellular ROS in melanocytes [5] | expression of MITF (immunoblot) ([6]; melanocytes, 24 hrs of treatment) | expression of melanin regulators (MITF, MLANA, TYRP1, DCTT, TYR, TRPM1) ([6]; primary melanocyte, IFN-γ 100 ng/ml 24 hrs vs control, transcriptome) | expression of ferroptosis markers SLC7A11, SLC3A2, Ferritin, GPX4 and TFR1 (RNA sequencing) ([7]; 24 hrs IFN-γ) | expression of SLC7A11 (immunoblot) ([7]; 48 hours incubation with IFN-γ) | IC50 of IFN-γ causing 50% inhibition of melanocyte viability [8] | lipid peroxidation level in melanocytes [9]
1 | B1 | not CXCL9, CXCL10, or CXCL11 significantly decreases |  |  |  |  |  |  |  |  |  |  |  | 
2 | B2 | not CXCL9, CXCL10, or CXCL11 significantly decreases |  |  |  |  |  |  |  |  |  |  |  | 
3 | B3 | significantly decreases | induced early phase apoptosis; also recorded: significantly upregulate Annexin V but not 7AAD | 0.392 ng/mL | decrease in melanin content in a dose-dependent manner | 1 ng/ml | contributes to morphology change | significantly elevated | dose-dependently downregulates | induced downregulation of melanin regulators | downregulation | dose-dependently downregulated | 8.114 ng/mL | increased
